Experimental data: publication PMC10949841 (2024)
Numbering of substitutions follows the chain as printed. Numbers in names are those of the source.

Target: T1, HAdV-C5 hexon labeled with AlexaFluor594 (human adenovirus C5 (HAdV-C5), UniProt P04133 1-952, AlexaFluor594 label (sites not given))
T1 chain: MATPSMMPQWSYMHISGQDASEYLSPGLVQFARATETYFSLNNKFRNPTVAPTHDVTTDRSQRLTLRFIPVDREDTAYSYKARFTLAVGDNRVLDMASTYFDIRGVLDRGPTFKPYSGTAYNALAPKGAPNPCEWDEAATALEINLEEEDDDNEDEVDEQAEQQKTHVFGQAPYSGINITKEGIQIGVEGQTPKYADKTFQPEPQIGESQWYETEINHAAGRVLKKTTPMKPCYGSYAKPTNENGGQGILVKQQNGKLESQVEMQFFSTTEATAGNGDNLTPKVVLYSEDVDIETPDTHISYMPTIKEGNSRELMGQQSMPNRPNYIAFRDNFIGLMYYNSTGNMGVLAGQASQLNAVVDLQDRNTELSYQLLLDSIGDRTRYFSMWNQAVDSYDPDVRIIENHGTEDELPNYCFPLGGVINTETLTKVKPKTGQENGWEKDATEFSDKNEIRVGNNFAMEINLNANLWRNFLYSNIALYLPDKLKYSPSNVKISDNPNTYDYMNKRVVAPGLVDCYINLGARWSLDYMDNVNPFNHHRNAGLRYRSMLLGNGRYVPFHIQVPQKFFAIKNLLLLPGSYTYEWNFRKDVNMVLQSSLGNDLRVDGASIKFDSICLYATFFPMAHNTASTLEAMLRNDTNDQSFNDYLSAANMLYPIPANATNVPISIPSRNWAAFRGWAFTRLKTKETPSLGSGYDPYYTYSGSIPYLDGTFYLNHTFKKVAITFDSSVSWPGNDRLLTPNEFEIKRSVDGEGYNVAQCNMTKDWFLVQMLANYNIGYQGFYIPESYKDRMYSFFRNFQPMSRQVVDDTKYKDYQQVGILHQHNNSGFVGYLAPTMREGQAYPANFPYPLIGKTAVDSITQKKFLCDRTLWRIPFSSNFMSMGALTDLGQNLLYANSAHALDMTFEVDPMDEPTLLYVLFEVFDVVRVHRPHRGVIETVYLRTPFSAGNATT
Test: MST

B1: hLF mut3 (K28A) (natural protein)
chain: GRRRSVQWCAVSQPEATKCFQWQRNMRAVRGPPVSCIKRDSPIQCIQAIAENRADAVTLDGGFIYEAGLAPYKLRPVAAEVYGTERQPRTHYYAVAVVKKGGSFQLNELQGLKSCHTGLRRTAGWNVPIGTLRPFLNWTGPPEPIEAAVARFFSASCVPGADKGQFPNLCRLCAGTGENKCAFSSQEPYFSYSGAFKCLRDGAGDVAFIRESTVFEDLSDEAERDEYELLCPDNTRKPVDKFKDCHLARVPSHAVVARSVNGKEDAIWNLLRQAQEKFGKDKSPKFQLFGSPSGQKDLLFKDSAIGFSRVPPRIDSGLYLGSGYFTAIQNLRKSEEEVAARRARVVWCAVGEQELRKCNQWSGLSEGSVTCSSASTTEDCIALVLKGEADAMSLDGGYVYTAGKCGLVPVLAENYKSQQSSDPDPNCVDRPVEGYLAVAVVRRSDTSLTWNSVKGKKSCHTAVDRTAGWNIPMGLLFNQTGSCKFDEYFSQSCAPGSDPRSNLCALCIGDEQGENKCVPNSNERYYGYTGAFRCLAENAGDVAFVKDVTVLQNTDGNNNEAWAKDLKLADFALLCLDGKRKPVTEARSCHLAMAPNHAVVSRMDKVERLKQVLLHQQAKFGRNGSDCPDKFCLFQSETKNLLFNDNTECLARLHGKTTYEKYLGPQYVAGITNLKKCSTSPLLEACEFLRK
For B1, the Kd was 125 nM.

B2: hLF mut6 (K277S/K280A/K285S) (natural protein)
chain: B1 chain with A28K, K277S, K280A, K285S
In the case of B2, the Kd is reported as 584 nM.

B3: hLF mut7 (N673A/S678A) (natural protein)
chain: B1 chain with A28K, N673A, S678A
B3 gave a Kd of 207 nM.

B4: hLF mut2 (R27A) (natural protein)
chain: B1 chain with R27A, A28K
Work on B4 yielded a Kd of 167 nM.

B5: hLF mut1 (R24S) (natural protein)
chain: B1 chain with R24S, A28K
With B5 the Kd was 247 nM.

B6: hLF mut8 (E687A/K691A) (natural protein)
chain: B1 chain with A28K, E687A, K691A
In the case of B6, the Kd is reported as 370 nM.

B7: hLF mut4 (R30A) (natural protein)
chain: B1 chain with A28K, R30A
B7 gave a Kd of 207 nM.

B8: hLF mut5 (R24S/R27A/K28A/R30A) (natural protein)
chain: B1 chain with R24S, R27A, R30A
B8 was tested, and the Kd was 602 nM.

B9: human lactoferrin (hLF), wild type (natural protein)
chain: B1 chain with A28K
B9 showed a Kd of 117 nM.
